Assay results published in PMC12102759 (2025).

B1: ATXN2 peptide 913-928 (Ataxin-2), 16-mer library wild type / PABPC1 PABC (PABPC1 PABC domain, residues 544-623) (parent complex)
chain 1: TLNPNAKEFNPRSFSQ
chain 2: PLTASMLASAPPQEQKQMLGERLFPLIQAMHPTLAGKITGMLLEIDNSELLHMLESPESLRSKVDEAVAVLQAHQAKEAA

Variants of: B1
Assay: proteomic peptide phage display deep mutational scan (ProP-PD DMS): M13 P8 16-mer library selected against immobilised GST-tagged bait for four days (rounds), NGS of the eluted pools per day and pseudo-replica; bait immobilised on MaxiSorp plates (10 µg), library pre-cleared on GST, 2 h binding at 4 °C, five washes; one round per day, days 1-4; value from days 2 and 3

Row | Variant | screen value
1 | chain 1 T1I | 0.000134 average fractional NGS count over selection days 2 and 3 (reads of this peptide / all reads for the bait, averaged over …
2 | chain 1 T1R | 0.00254 average fractional NGS count over selection days 2 and 3 (reads of this peptide / all reads for the bait, averaged over …
3 | chain 1 T1V | 0.000977 average fractional NGS count over selection days 2 and 3 (reads of this peptide / all reads for the bait, averaged over …
4 | chain 1 T1G | 0.00313 average fractional NGS count over selection days 2 and 3 (reads of this peptide / all reads for the bait, averaged over …
5 | chain 1 T1K | 0.00118 average fractional NGS count over selection days 2 and 3 (reads of this peptide / all reads for the bait, averaged over …
6 | chain 1 T1D | 0.00327 average fractional NGS count over selection days 2 and 3 (reads of this peptide / all reads for the bait, averaged over …
7 | chain 1 T1N | 0.000793 average fractional NGS count over selection days 2 and 3 (reads of this peptide / all reads for the bait, averaged over …
8 | chain 1 T1M | 0.000194 average fractional NGS count over selection days 2 and 3 (reads of this peptide / all reads for the bait, averaged over …
9 | chain 1 T1H | 0.000542 average fractional NGS count over selection days 2 and 3 (reads of this peptide / all reads for the bait, averaged over …
10 | chain 1 T1L | 0.0036 average fractional NGS count over selection days 2 and 3 (reads of this peptide / all reads for the bait, averaged over …
11 | chain 1 T1Y | 0.0102 average fractional NGS count over selection days 2 and 3 (reads of this peptide / all reads for the bait, averaged over …
12 | chain 1 S13Q | 0.000347 average fractional NGS count over selection days 2 and 3 (reads of this peptide / all reads for the bait, averaged over …
13 | chain 1 S13G | 0.00314 average fractional NGS count over selection days 2 and 3 (reads of this peptide / all reads for the bait, averaged over …
14 | chain 1 S13A | 0.00421 average fractional NGS count over selection days 2 and 3 (reads of this peptide / all reads for the bait, averaged over …
15 | chain 1 S13L | 0.0013 average fractional NGS count over selection days 2 and 3 (reads of this peptide / all reads for the bait, averaged over …
16 | chain 1 S13N | 0.00133 average fractional NGS count over selection days 2 and 3 (reads of this peptide / all reads for the bait, averaged over …
17 | chain 1 S13D | 0.00111 average fractional NGS count over selection days 2 and 3 (reads of this peptide / all reads for the bait, averaged over …
18 | chain 1 S13Y | 0.00087 average fractional NGS count over selection days 2 and 3 (reads of this peptide / all reads for the bait, averaged over …
19 | chain 1 S13W | 0.000472 average fractional NGS count over selection days 2 and 3 (reads of this peptide / all reads for the bait, averaged over …
20 | chain 1 S13T | 0.00197 average fractional NGS count over selection days 2 and 3 (reads of this peptide / all reads for the bait, averaged over …
21 | chain 1 R12L | 0.000524 average fractional NGS count over selection days 2 and 3 (reads of this peptide / all reads for the bait, averaged over …
22 | chain 1 R12V | 0.00419 average fractional NGS count over selection days 2 and 3 (reads of this peptide / all reads for the bait, averaged over …
23 | chain 1 R12F | 0.000951 average fractional NGS count over selection days 2 and 3 (reads of this peptide / all reads for the bait, averaged over …
24 | chain 1 R12N | 0.00143 average fractional NGS count over selection days 2 and 3 (reads of this peptide / all reads for the bait, averaged over …
25 | chain 1 R12M | 0.00123 average fractional NGS count over selection days 2 and 3 (reads of this peptide / all reads for the bait, averaged over …

Row | Variant | screen value
26 | chain 1 R12Q | 0.000478 average fractional NGS count over selection days 2 and 3 (reads of this peptide / all reads for the bait, averaged over …
27 | chain 1 R12Y | 0.00157 average fractional NGS count over selection days 2 and 3 (reads of this peptide / all reads for the bait, averaged over …
28 | chain 1 R12G | 0.000653 average fractional NGS count over selection days 2 and 3 (reads of this peptide / all reads for the bait, averaged over …
29 | chain 1 R12T | 0.00189 average fractional NGS count over selection days 2 and 3 (reads of this peptide / all reads for the bait, averaged over …
30 | chain 1 R12K | 0.000537 average fractional NGS count over selection days 2 and 3 (reads of this peptide / all reads for the bait, averaged over …
31 | chain 1 R12I | 0.00122 average fractional NGS count over selection days 2 and 3 (reads of this peptide / all reads for the bait, averaged over …
32 | chain 1 R12D | 0.00156 average fractional NGS count over selection days 2 and 3 (reads of this peptide / all reads for the bait, averaged over …
33 | chain 1 R12E | 0.000493 average fractional NGS count over selection days 2 and 3 (reads of this peptide / all reads for the bait, averaged over …
34 | chain 1 S15F | 0.000374 average fractional NGS count over selection days 2 and 3 (reads of this peptide / all reads for the bait, averaged over …
35 | chain 1 S15D | 0.000508 average fractional NGS count over selection days 2 and 3 (reads of this peptide / all reads for the bait, averaged over …
36 | chain 1 S15I | 0.000409 average fractional NGS count over selection days 2 and 3 (reads of this peptide / all reads for the bait, averaged over …
37 | chain 1 S15M | 0.00397 average fractional NGS count over selection days 2 and 3 (reads of this peptide / all reads for the bait, averaged over …
38 | chain 1 S15G | 0.00895 average fractional NGS count over selection days 2 and 3 (reads of this peptide / all reads for the bait, averaged over …
39 | chain 1 S15V | 0.000359 average fractional NGS count over selection days 2 and 3 (reads of this peptide / all reads for the bait, averaged over …
40 | chain 1 S15E | 0.00372 average fractional NGS count over selection days 2 and 3 (reads of this peptide / all reads for the bait, averaged over …
41 | chain 1 S15W | 0.00221 average fractional NGS count over selection days 2 and 3 (reads of this peptide / all reads for the bait, averaged over …
42 | chain 1 S15R | 0.000394 average fractional NGS count over selection days 2 and 3 (reads of this peptide / all reads for the bait, averaged over …
43 | chain 1 S15Q | 0.000598 average fractional NGS count over selection days 2 and 3 (reads of this peptide / all reads for the bait, averaged over …
44 | chain 1 S15H | 0.000448 average fractional NGS count over selection days 2 and 3 (reads of this peptide / all reads for the bait, averaged over …
45 | chain 1 S15A | 0.000937 average fractional NGS count over selection days 2 and 3 (reads of this peptide / all reads for the bait, averaged over …
46 | chain 1 K7Y | 0.0438 average fractional NGS count over selection days 2 and 3 (reads of this peptide / all reads for the bait, averaged over …
47 | chain 1 K7S | 0.00126 average fractional NGS count over selection days 2 and 3 (reads of this peptide / all reads for the bait, averaged over …
48 | chain 1 K7Q | 0.000831 average fractional NGS count over selection days 2 and 3 (reads of this peptide / all reads for the bait, averaged over …
49 | chain 1 K7T | 0.000636 average fractional NGS count over selection days 2 and 3 (reads of this peptide / all reads for the bait, averaged over …
50 | chain 1 K7W | 0.00309 average fractional NGS count over selection days 2 and 3 (reads of this peptide / all reads for the bait, averaged over …

Row | Variant | screen value
51 | chain 1 K7G | 0.00102 average fractional NGS count over selection days 2 and 3 (reads of this peptide / all reads for the bait, averaged over …
52 | chain 1 K7I | 0.000344 average fractional NGS count over selection days 2 and 3 (reads of this peptide / all reads for the bait, averaged over …
53 | chain 1 K7D | 0.00119 average fractional NGS count over selection days 2 and 3 (reads of this peptide / all reads for the bait, averaged over …
54 | chain 1 K7P | 0.000615 average fractional NGS count over selection days 2 and 3 (reads of this peptide / all reads for the bait, averaged over …
55 | chain 1 K7F | 0.00539 average fractional NGS count over selection days 2 and 3 (reads of this peptide / all reads for the bait, averaged over …
56 | chain 1 K7A | 0.0221 average fractional NGS count over selection days 2 and 3 (reads of this peptide / all reads for the bait, averaged over …
57 | chain 1 K7H | 0.0027 average fractional NGS count over selection days 2 and 3 (reads of this peptide / all reads for the bait, averaged over …
58 | chain 1 K7V | 0.000726 average fractional NGS count over selection days 2 and 3 (reads of this peptide / all reads for the bait, averaged over …
59 | chain 1 F14V | 0.00125 average fractional NGS count over selection days 2 and 3 (reads of this peptide / all reads for the bait, averaged over …
60 | chain 1 F14L | 0.00171 average fractional NGS count over selection days 2 and 3 (reads of this peptide / all reads for the bait, averaged over …
61 | chain 1 F14H | 0.00184 average fractional NGS count over selection days 2 and 3 (reads of this peptide / all reads for the bait, averaged over …
62 | chain 1 F14P | 0.00134 average fractional NGS count over selection days 2 and 3 (reads of this peptide / all reads for the bait, averaged over …
63 | chain 1 F14A | 0.000336 average fractional NGS count over selection days 2 and 3 (reads of this peptide / all reads for the bait, averaged over …
64 | chain 1 F14E | 0.000387 average fractional NGS count over selection days 2 and 3 (reads of this peptide / all reads for the bait, averaged over …
65 | chain 1 F14N | 0.00127 average fractional NGS count over selection days 2 and 3 (reads of this peptide / all reads for the bait, averaged over …
66 | chain 1 N5M | 0.0888 average fractional NGS count over selection days 2 and 3 (reads of this peptide / all reads for the bait, averaged over …
67 | chain 1 N5V | 0.0117 average fractional NGS count over selection days 2 and 3 (reads of this peptide / all reads for the bait, averaged over …
68 | chain 1 N5A | 0.00056 average fractional NGS count over selection days 2 and 3 (reads of this peptide / all reads for the bait, averaged over …
69 | chain 1 N5D | 0.00049 average fractional NGS count over selection days 2 and 3 (reads of this peptide / all reads for the bait, averaged over …
70 | chain 1 N5T | 0.00242 average fractional NGS count over selection days 2 and 3 (reads of this peptide / all reads for the bait, averaged over …
71 | chain 1 N5I | 0.00126 average fractional NGS count over selection days 2 and 3 (reads of this peptide / all reads for the bait, averaged over …
72 | chain 1 N5F | 0.000799 average fractional NGS count over selection days 2 and 3 (reads of this peptide / all reads for the bait, averaged over …
73 | chain 1 N5K | 0.00157 average fractional NGS count over selection days 2 and 3 (reads of this peptide / all reads for the bait, averaged over …
74 | chain 1 N5L | 0.00771 average fractional NGS count over selection days 2 and 3 (reads of this peptide / all reads for the bait, averaged over …
75 | chain 1 N5G | 0.00173 average fractional NGS count over selection days 2 and 3 (reads of this peptide / all reads for the bait, averaged over …
